According to patent publication US20230391845A1, “GLP-1, GIP AND GLUCAGON RECEPTOR TRIPLE AGONISTS” (priority 2020, published 2023):
*1 amine or outer side, *2 acyl side, *3 side chain or, on linkers, in order; H or OH if unused. Where a SMILES comes first, the peptide text is derived from it. Where no end group is shown, it is not given here. Side-chain parts run from the residue outwards. [ ]: non-standard residue; d: D form. The star is where a group is joined. X1 = O=C(O)CCCCCCCCCCCCCCCCCCC(=O)NCC1CCC(C(=O)*)CC1; γGlu = O=C(O)[C@H](CCC(=O)[*:2])N[*:1]; εLys = N[C@@H](CCCCN[*:1])C(=O)[*:2]; Aib = CC(C)(N)C(=O)O

T1: mouse GIP receptor (Mus musculus, UniProt Q0P543)
T1 construct: expressed in transfected cells; host or cells: BHK cells (parent line BHKTS13) containing CRE luciferase
T1 sequence (Q0P543 19-460): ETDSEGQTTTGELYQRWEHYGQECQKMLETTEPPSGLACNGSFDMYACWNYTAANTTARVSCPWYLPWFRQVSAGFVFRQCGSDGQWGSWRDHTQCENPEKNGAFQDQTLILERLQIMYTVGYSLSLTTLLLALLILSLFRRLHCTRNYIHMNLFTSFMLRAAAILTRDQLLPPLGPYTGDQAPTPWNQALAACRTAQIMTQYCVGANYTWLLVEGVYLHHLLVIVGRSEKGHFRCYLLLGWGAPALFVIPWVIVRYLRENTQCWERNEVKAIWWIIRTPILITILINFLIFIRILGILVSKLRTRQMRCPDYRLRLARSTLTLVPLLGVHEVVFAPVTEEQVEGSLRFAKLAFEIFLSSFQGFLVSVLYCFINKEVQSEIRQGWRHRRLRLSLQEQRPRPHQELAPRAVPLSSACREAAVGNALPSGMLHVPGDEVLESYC

T2: mouse GLP-1 receptor (Mus musculus, UniProt O35659)
T2 construct: expressed in transfected cells; host or cells: BHK cells (parent line BHKTS13) containing CRE luciferase
T2 sequence (O35659 22-463): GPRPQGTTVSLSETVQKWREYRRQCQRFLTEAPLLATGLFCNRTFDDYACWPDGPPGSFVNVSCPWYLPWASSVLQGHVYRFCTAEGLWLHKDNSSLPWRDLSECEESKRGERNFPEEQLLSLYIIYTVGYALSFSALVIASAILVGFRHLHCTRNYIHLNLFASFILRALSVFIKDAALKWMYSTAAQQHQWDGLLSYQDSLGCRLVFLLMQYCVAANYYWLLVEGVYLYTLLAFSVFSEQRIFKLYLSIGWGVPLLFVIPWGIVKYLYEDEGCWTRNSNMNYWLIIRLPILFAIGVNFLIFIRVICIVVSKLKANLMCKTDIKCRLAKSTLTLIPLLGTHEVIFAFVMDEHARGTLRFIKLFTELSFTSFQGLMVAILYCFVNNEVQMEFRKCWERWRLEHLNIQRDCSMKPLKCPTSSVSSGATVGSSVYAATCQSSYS

T3: mouse GLP-1 receptor (mouse, UniProt O35659 22-463)
T3 sequence (looked up): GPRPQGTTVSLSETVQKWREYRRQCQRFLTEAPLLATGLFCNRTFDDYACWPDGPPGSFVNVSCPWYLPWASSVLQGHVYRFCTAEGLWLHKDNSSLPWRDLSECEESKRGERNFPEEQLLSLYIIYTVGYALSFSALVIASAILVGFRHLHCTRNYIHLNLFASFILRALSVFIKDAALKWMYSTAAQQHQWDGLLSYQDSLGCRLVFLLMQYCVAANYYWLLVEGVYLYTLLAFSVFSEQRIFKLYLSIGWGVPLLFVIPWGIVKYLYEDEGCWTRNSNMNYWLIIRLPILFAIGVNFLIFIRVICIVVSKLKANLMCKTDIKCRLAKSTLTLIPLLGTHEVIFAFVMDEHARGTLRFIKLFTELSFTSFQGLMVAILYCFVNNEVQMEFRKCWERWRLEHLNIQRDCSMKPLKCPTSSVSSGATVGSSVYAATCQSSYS

T4: mouse GIP receptor (mouse, UniProt Q0P543 19-460)
T4 sequence (looked up): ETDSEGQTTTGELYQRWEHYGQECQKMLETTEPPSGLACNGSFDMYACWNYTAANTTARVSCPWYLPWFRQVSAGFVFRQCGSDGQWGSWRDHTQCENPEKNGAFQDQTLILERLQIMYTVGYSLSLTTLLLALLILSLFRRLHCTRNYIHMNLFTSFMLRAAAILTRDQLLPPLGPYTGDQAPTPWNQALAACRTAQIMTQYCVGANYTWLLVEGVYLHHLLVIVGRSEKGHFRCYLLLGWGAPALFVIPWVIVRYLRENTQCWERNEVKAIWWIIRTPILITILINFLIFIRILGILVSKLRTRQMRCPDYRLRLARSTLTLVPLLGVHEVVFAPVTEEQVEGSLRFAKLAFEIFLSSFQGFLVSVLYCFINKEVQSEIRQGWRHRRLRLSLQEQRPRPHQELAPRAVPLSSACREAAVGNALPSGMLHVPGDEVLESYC

T5: human glucose-dependent insulinotropic polypeptide receptor (human, UniProt P48546 22-466)
T5 sequence (looked up): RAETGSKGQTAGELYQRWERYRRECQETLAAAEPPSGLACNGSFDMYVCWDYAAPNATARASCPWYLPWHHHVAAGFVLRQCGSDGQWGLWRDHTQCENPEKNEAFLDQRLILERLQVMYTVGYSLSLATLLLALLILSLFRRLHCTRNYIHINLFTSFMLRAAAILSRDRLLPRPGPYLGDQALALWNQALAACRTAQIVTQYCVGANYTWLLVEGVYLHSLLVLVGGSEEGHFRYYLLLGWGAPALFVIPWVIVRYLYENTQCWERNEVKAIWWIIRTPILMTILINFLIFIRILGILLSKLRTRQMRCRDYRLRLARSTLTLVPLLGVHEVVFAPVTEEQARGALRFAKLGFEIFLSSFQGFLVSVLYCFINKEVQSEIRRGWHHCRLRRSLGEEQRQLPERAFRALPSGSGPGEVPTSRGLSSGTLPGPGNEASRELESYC


What was measured:
mouse Gcg receptor [1] = biological target: T6, mouse Gcg receptor (Mus musculus, UniProt Q61606); assay: In vitro functional potency (CRE luciferase; whole cells), mouse GcgR; format: cell-based; conditions: BHK cells expressing mouse Gcg receptor
T6 construct: expressed in transfected cells; host or cells: BHK cells (parent line BHKTS13) containing CRE luciferase
Method: (§1) The purpose of this example is to test the functional activity, or potency, of the compounds in vitro at the human and mouse GLP-1, GIP, and Gcg receptors. The in vitro functional potency is the measure of target receptor activation in a whole cell assay.
(§2) In vitro functional potency was determined by measuring the response of the target receptor in a reporter gene assay in individual cell lines. The assay was performed in stably transfected BHK cell lines that expresses one of the following G-protein coupled receptors: human GLP-1 receptor, human GIP receptor, human Gcg receptor, mouse GLP-1 receptor, mouse GIP receptor, or mouse Gcg receptor; and where each cell line contains the DNA for the cAMP response element (CRE) coupled to a promoter and the gene for firefly luciferase (CRE luciferase). When the respective receptor is activated, it results in the production of cAMP, which in turn results in expression of the luciferase protein. […] The luminescence is measured as the readout for the assay. […]
(§3) The data from the microtiter plate reader was first regressed in an Excel in order to calculate the x-axis, log scale concentrations based on the individual test compound's stock concentration and the dilutions of the assay. […] A minimum of two replicates was measured for each sample. […]

mouse GIP receptor [2] = biological target: T1, mouse GIP receptor; assay: In vitro functional potency (CRE luciferase; whole cells), mouse GIPR; format: cell-based; conditions: BHK cells expressing mouse GIP receptor
Method: as §1, §2, §3

mouse GLP-1 receptor [3] = biological target: T2, mouse GLP-1 receptor; assay: In vitro functional potency (CRE luciferase; whole cells), mouse GLP-1R; format: cell-based; conditions: BHK cells expressing mouse GLP-1 receptor
Method: as §1, §2, §3

[4] = glucagon: depending on the route of administration; cited from earlier work
mouse GLP-1 receptor [5] = biological target: T3, mouse GLP-1 receptor; assay: cell-based or functional assay
mouse Gcg receptor [6] = biological target: mouse Gcg receptor (mouse, UniProt Q61606 27-485); assay: cell-based or functional assay
mouse GIP receptor [7] = biological target: T4, mouse GIP receptor; assay: cell-based or functional assay
[8] = biological target: human glucagon-like peptide 1 receptor (human, UniProt P43220 24-463); assay: cell-based or functional assay
human glucagon receptor = human glucagon receptor (human, UniProt P47871 26-477); assay: cell-based or functional assay
[9] = biological target: T5, human glucose-dependent insulinotropic …; assay: cell-based or functional assay

Sequence of mouse Gcg receptor (mouse, UniProt Q61606 27-485) (Q61606 27-485): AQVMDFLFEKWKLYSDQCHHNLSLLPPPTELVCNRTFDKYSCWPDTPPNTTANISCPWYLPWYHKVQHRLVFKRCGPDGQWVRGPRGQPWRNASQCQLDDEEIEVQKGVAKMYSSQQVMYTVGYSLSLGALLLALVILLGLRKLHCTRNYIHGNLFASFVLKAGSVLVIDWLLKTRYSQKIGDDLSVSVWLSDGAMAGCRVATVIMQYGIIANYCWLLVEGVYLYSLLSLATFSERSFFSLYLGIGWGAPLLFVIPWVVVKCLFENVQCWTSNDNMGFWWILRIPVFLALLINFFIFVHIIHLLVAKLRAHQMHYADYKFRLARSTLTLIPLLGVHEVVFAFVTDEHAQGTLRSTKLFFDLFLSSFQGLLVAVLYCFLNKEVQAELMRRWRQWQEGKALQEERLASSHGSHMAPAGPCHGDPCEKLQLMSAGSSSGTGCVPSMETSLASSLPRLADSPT
Sequence of human glucagon receptor (P47871 26-477): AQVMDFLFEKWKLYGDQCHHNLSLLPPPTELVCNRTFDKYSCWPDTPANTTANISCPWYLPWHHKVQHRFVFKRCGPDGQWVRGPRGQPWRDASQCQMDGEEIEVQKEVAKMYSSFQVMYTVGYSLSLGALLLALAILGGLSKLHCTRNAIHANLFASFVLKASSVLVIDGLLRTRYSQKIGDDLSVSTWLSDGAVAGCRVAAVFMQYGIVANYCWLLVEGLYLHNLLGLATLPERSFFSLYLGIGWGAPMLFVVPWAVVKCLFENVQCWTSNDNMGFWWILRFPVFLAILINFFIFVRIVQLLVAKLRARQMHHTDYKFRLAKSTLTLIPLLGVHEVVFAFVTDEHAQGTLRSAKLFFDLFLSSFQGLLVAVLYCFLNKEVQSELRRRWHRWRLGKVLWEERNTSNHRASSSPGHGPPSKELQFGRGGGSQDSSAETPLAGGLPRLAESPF
T6 sequence (Q61606 27-485): as the sequence (Q61606 27-485) above

Molecule | mGcgR CRE Luc EC50 (pM) (mouse Gcg receptor [1]) | mGIPR CRE Luc EC50 (pM) (mouse GIP receptor [2]) | mGLP-1R CRE Luc EC50 (pM) (mouse GLP-1 receptor [3]) | half-life as measured in man [4] | mGLP-1R CRE Luc EC50 (pM) (mouse GLP-1 receptor [5]) | mGcgR CRE Luc EC50 (pM) (mouse Gcg receptor [6]) | mGIPR CRE Luc EC50 (pM) (mouse GIP receptor [7]) | hGLP-1R CRE Luc EC50 (pM) [8] | hGcgR CRE Luc EC50 (pM) (human glucagon receptor) | hGIPR CRE Luc EC50 (pM) [9]
CC[C@H](C)[C@H](NC(=O)[C@H](CO)NC(=O)[C@H](Cc1ccc(O)cc1)NC(=O)[C@H](CC(=O)O)NC(=O)[C@H](CO)NC(=O)[C@@H](NC(=O)[C@H](Cc1ccccc1)NC(=O)[C@@H](NC(=O)CNC(=O)[C@H](Cc1c[nH]cn1)NC(=O)C(C)(C)NC(=O)[C@@H](N)Cc1c[nH]cn1)[C@@H](C)O)[C@@H](C)O)C(=O)N[C@@H](Cc1ccc(O)cc1)C(=O)N[C@@H](CC(C)C)C(=O)N[C@@H](CCC(=O)O)C(=O)N[C@@H](CCCCNC(=O)[C@@H](N)CCCCNC(=O)[C@@H](N)CCCCNC(=O)CC[C@H](NC(=O)C1CCC(CNC(=O)CCCCCCCCCCCCCCCCCCC(=O)O)CC1)C(=O)O)C(=O)N[C@@H](CCC(N)=O)C(=O)N[C@@H](C)C(=O)N[C@@H](C)C(=O)NC(C)(C)C(=O)N[C@@H](CCC(=O)O)C(=O)N[C@@H](Cc1ccccc1)C(=O)N[C@H](C(=O)N[C@@H](CCC(N)=O)C(=O)N[C@@H](Cc1c[nH]c2ccccc12)C(=O)N[C@@H](CC(C)C)C(=O)N[C@@H](CC(C)C)C(=O)N[C@@H](CCC(=O)O)C(=O)NCC(=O)NCC(=O)N1CCC[C@H]1C(=O)N[C@@H](CO)C(=O)N[C@@H](CO)C(=O)NCC(=O)N[C@@H](C)C(=O)N1CCC[C@H]1C(=O)N1CCC[C@H]1C(=O)N1CCC[C@H]1C(=O)N[C@@H](CO)C(N)=O)C(C)C (stereo partly shown) [Compound No. 21] (H-H[Aib]HGTFTSDYSIYLEK([εLys-εLys-γGlu-X1])QAA[Aib]EFVQWLLEGGPSSGAPPPS-NH2; N-terminus assumed) | reduced | similar | similar | – | – | – | – | – | – | –
CC[C@H](C)[C@H](NC(=O)[C@H](CO)NC(=O)[C@H](Cc1ccc(O)cc1)NC(=O)[C@H](CC(=O)O)NC(=O)[C@H](CO)NC(=O)[C@@H](NC(=O)[C@H](Cc1ccccc1)NC(=O)[C@@H](NC(=O)CNC(=O)[C@H](CCC(=O)O)NC(=O)[C@H](C)NC(=O)[C@@H](N)Cc1ccc(O)cc1)[C@@H](C)O)[C@@H](C)CC)C(=O)N[C@@H](C)C(=O)N[C@@H](CCSC)C(=O)N[C@@H](CC(=O)O)C(=O)N[C@@H](CCCCN)C(=O)N[C@H](C(=O)N[C@@H](Cc1c[nH]cn1)C(=O)N[C@@H](CCC(N)=O)C(=O)N[C@@H](CCC(N)=O)C(=O)N[C@@H](CC(=O)O)C(=O)N[C@@H](Cc1ccccc1)C(=O)N[C@H](C(=O)N[C@@H](CC(N)=O)C(=O)N[C@@H](Cc1c[nH]c2ccccc12)C(=O)N[C@@H](CC(C)C)C(=O)N[C@@H](CC(C)C)C(=O)N[C@@H](C)C(=O)N[C@@H](CCC(N)=O)C(=O)N[C@@H](CCCCN)C(=O)NCC(=O)N[C@@H](CCCCN)C(=O)N[C@@H](CCCCN)C(=O)N[C@@H](CC(N)=O)C(=O)N[C@@H](CC(=O)O)C(=O)N[C@@H](Cc1c[nH]c2ccccc12)C(=O)N[C@@H](CCCCN)C(=O)N[C@@H](Cc1c[nH]cn1)C(=O)N[C@@H](CC(N)=O)C(=O)N[C@H](C(=O)N[C@H](C(=O)N[C@@H](CCC(N)=O)C(=O)O)[C@@H](C)O)[C@@H](C)CC)C(C)C)[C@@H](C)CC [hGIP, Native Human GIP] | – | – | – | 5 to 7 min | – | – | – | – | – | –
H[Aib]HGTFTSDYSIYLEKKAA[Aib]EFVQWLLEGGPSSGAPPPS-NH2 (not fully specified (residue 16); printed as H-Aib-HGTFTSDYSIYLE-K[(2S)-2-amino-6-[[(2S)-2-amino-6-[[(4S)-4-carboxy-4-(19-carboxynonadecanoylamino)butanoyl]amino]hexanoyl]amino]hexanoyl]-KAA-Aib-EFVQWLLEGGPSSGAPPPS-NH2) [Compound No. 33] | – | – | – | – | 2.2 pM | 8.1 pM | 10 pM | 3.3 pM | 13.7 pM | 7.3 pM
H[Aib]HGTFTSDYSIYLEKQAA[Aib]EFVQWLLEGGPSSGAPPPS-NH2 (not fully specified (residue 16)) [Compound No. 21] | – | – | – | – | 2.9 pM | 56.1 pM | 9.8 pM | 3 pM | 26.6 pM | 3.2 pM
H[Aib]HGTFTSDYSIYLEKKYA[Aib]EFVQWLLEGGPSSGAPPPS-NH2 (not fully specified (residue 16); printed as H-Aib-HGTFTSDYSIYLE-K[(2S)-2-amino-6-[[(2S)-2-amino-6-[[(4S)-4-carboxy-4-(19-carboxynonadecanoylamino)butanoyl]amino]hexanoyl]amino]hexanoyl]-KYA-Aib-EFVQWLLEGGPSSGAPPPS-NH2) [Compound No. 30] | – | – | – | – | 2.6 pM | 5.7 pM | 11.2 pM | 3.9 pM | 9.3 pM | 15.6 pM
